Reference: paper PMC4175358, “Conformational Analysis of the Streptococcus pneumoniae Hyaluronate Lyase and Characterization of Its Hyaluronan-specific Carbohydrate-binding Module*^([image sbox.jpg])” (The Journal of Biological Chemistry, 2014)

Columns and labels:
SpCBM70 = molecular target: T1, SpCBM70 (Streptococcus pneumoniae, UniProt Q54873); assay: isothermal titration calorimetry; assay type: binding; settings: 25 °C, 25 mM Tris-HCl pH 7.5, 50 mM NaCl; too weak to quantify
T1 construct: gene SP_0314; N-terminal CBM70 module, Lys53-Ser212, N-terminal His6 tag with thrombin site (pET28), recombinant in E. coli; ITC construct; 4D0Q is the C-terminally His6-tagged Asn54-Ser212 form, unliganded
Description: isothermal titration calorimetry on SpCBM70

[1] = molecular target: the molecule itself; assay: small angle X-ray scattering; 50 mM Tris-HCl pH 8.0, 500 mM NaCl, 288 K, Hyl 1.0-10.8 mg/ml; monomer/dimer mixture modelled with SASREF7MX (P2 symmetry, 30 runs each at 1.0-2.7 mg/ml) and OLIGOMER; Kd = [monomer]^2/[dimer], dimer to monomers
[2] = molecular target: the molecule itself; assay: dynamic light scattering; 25 °C, triplicate, 15 acquisitions of 5 s, after size exclusion chromatography and 0.22 µm filter; Hyl 1.0-10.8 mg/ml, PL8 1.4-10.9 mg/ml; associated fraction from expected radii of a globular monomer and dimer; Kd = [monomer]^2/[dimer], dimer to monomers

Molecule	Ka (SpCBM70)	Kd [1] [µM]	stoichiometry N [1]	Kd [2] [µM]	stoichiometry N [2]
Hyaluronan 4-mer	> 5 × 10^3				
Streptococcus pneumoniae hyaluronate lyase, construct with the CBM, middle (linker) and PL8 domains (residues Lys53-Lys1006) (enzyme, Hyaluronate lyase (Hyl) of Streptococcus pneumoniae, a 1066-amino acid protein; residues Lys53-Lys1006, amplified from genomic DNA; lacks the N-terminal secretion signal peptide and the C-terminal cell-wall anchoring motif; the results section prints 53-1007; The His6 tag is joined by a thrombin cleavage site; Theoretical mass printed as 110.6 kDa; In solution a monomer/dimer mixture; also called …) KNLVENGDFGQTEDGSSPWTGSKAQGWSAWVDQKNSADASTRVIEAKDGAITISSHEKLRAALHRMVPIEAKKKYKLRFKIKTDNKIGIAKVRIIEESGKDKRLWNSATTSGTKDWQTIEADYSPTLDVDKIKLELFYETGTGTVSFKDIELVEVADQLSEDSQTDKQLEEKIDLPIGKKHVFSLADYTYKVENPDVASVKNGILEPLKEGTTNVIVSKDGKEVKKIPLKILASVKDAYTDRLDDWNGIIAGNQYYDSKNEQMAKLNQELEGKVADSLSSISSQADRTYLWEKFSNYKTSANLTATYRKLEEMAKQVTNPSSRYYQDETVVRTVRDSMEWMHKHVYNSEKSIVGNWWDYEIGTPRAINNTLSLMKEYFSDEEIKKYTDVIEKFVPDPEHFRKTTDNPFKALGGNLVDMGRVKVIAGLLRKDDQEISSTIRSIEQVFKLVDQGEGFYQDGSYIDHTNVAYTGAYGNVLIDGLSQLLPVIQKTKNPIDKDKMQTMYHWIDKSFAPLLVNGELMDMSRGRSISRANSEGHVAAVEVLRGIHRIADMSEGETKQCLQSLVKTIVQSDSYYDVFKNLKTYKDISLMQSLLSDAGVASVPRPSYLSAFNKMDKTAMYNAEKGFGFGLSLFSSRTLNYEHMNKENKRGWYTSDGMFYLYNGDLSHYSDGYWPTVNPYKMPGTTETDAKRADSDTGKVLPSAFVGTSKLDDANATATMDFTNWNQTLTAHKSWFMLKDKIAFLGSNIQNTSTDTAATTIDQRKLESGNPYKVYVNDKEASLTEQEKDYPETQSVFLESFDSKKNIGYFFFKKSSISMSKALQKGAWKDINEGQSDKEVENEFLTISQAHKQNRDSYGYMLIPNVDRATFNQMIKELESSLIENNETLQSVYDAKQGVWGIVKYDDSVSTISNQFQVLKRGVYTIRKEGDEYKIAYYNPETQESAPDQEVFKK		~43	2	~37	
PL8 catalytic domain of Streptococcus pneumoniae hyaluronate lyase (residues Lys288-Gln1009) (domain or fragment, Hyaluronate lyase (Hyl) of Streptococcus pneumoniae, PL8 catalytic domain, residues Lys288-Gln1009; The His6 tag is joined by a thrombin cleavage site; Expected mass printed as 82 kDa; also called PL8 domain; isolated PL8 domain; source: recombinant, pET28, autoinduction culture) KDAYTDRLDDWNGIIAGNQYYDSKNEQMAKLNQELEGKVADSLSSISSQADRTYLWEKFSNYKTSANLTATYRKLEEMAKQVTNPSSRYYQDETVVRTVRDSMEWMHKHVYNSEKSIVGNWWDYEIGTPRAINNTLSLMKEYFSDEEIKKYTDVIEKFVPDPEHFRKTTDNPFKALGGNLVDMGRVKVIAGLLRKDDQEISSTIRSIEQVFKLVDQGEGFYQDGSYIDHTNVAYTGAYGNVLIDGLSQLLPVIQKTKNPIDKDKMQTMYHWIDKSFAPLLVNGELMDMSRGRSISRANSEGHVAAVEVLRGIHRIADMSEGETKQCLQSLVKTIVQSDSYYDVFKNLKTYKDISLMQSLLSDAGVASVPRPSYLSAFNKMDKTAMYNAEKGFGFGLSLFSSRTLNYEHMNKENKRGWYTSDGMFYLYNGDLSHYSDGYWPTVNPYKMPGTTETDAKRADSDTGKVLPSAFVGTSKLDDANATATMDFTNWNQTLTAHKSWFMLKDKIAFLGSNIQNTSTDTAATTIDQRKLESGNPYKVYVNDKEASLTEQEKDYPETQSVFLESFDSKKNIGYFFFKKSSISMSKALQKGAWKDINEGQSDKEVENEFLTISQAHKQNRDSYGYMLIPNVDRATFNQMIKELESSLIENNETLQSVYDAKQGVWGIVKYDDSVSTISNQFQVLKRGVYTIRKEGDEYKIAYYNPETQESAPDQEVFKKLEQ				~180	2
